Results from article PMC11876737, “Side-by-Side Comparison of the In Vivo Performance of [^212Pb]Pb-DOTAMTATE and Other SSTR2-Targeting Compounds” (Journal of Nuclear Medicine, 2025).
Read-outs that look alike come from different tables or passages of the source. Positions of bridges follow the written chain, without caps; N, C: chain ends. Non-standard residues stand in square brackets, D forms with d. Residues, ends and D or L forms follow the SMILES beside them. *: point of attachment. DO3AM = NC(=O)CN1CCN(CC(N)=O)CCN(CC(=O)*)CCN(CC(N)=O)CC1; dPhe(4-NHCONH2) = NC(=O)Nc1ccc(C[C@@H](N)C(=O)O)cc1; Dihydroorotyl(S) = O=C1C[C@@H](C(=O)*)NC(=O)N1; Phe(4-Cl) = N[C@@H](Cc1ccc(Cl)cc1)C(=O)O; Phe(4-NH2) = Nc1ccc(C[C@H](N)C(=O)O)cc1

Key:
[1] = tested on: SSTR2; details: cited from earlier work
[2] = tested on: somatostatin receptor 3; set-up: method as in PMID 10774879; details: cited from earlier work
[3] = tested on: somatostatin receptor 5; set-up: method as in PMID 10774879; details: cited from earlier work
[4] = tested on: SSTR2-overexpressing tumors, AR42J; assay: Biodistribution of ^212Pb SSTR2 analogs in AR42J tumor-bearing mice; format: in vivo, athymic nude female mice
Description: (§1) The background was automatically subtracted from the counts. A standard was also used for decay correction to time of injection or time of collection. The percent injected dose per gram (%ID/g) was calculated for each organ collected.  FIGURE 2. In vivo distribution of ^212Pb-radiolabeled SSTR2 analogs in athymic nude female mice carrying subcutaneous AR42J tumors. […] Tissue uptake is expressed as %ID/g ± SD decay corrected to time of injection (n = 4-5). In our study, we propose to use the integral of the time-activity curve, also known as the AUC, as a surrogate measure for estimating the absorbed dose. We calculated all SSTR2 analogs' AUC for kidneys and tumors including tumor-to-kidney ratios (T/K AUC ratio) (Figs. 3 and 4). We observed distinct AUC patterns and consequently distinct T/K AUC ratios across the different compounds.

[5] = as above; format: in vivo, athymic nude female mice; details: female, athymic nude, mouse, in vivo, iv, total radioactivity
Description: as §1

[6] = ^212Pb chelate RCY after 24 h at room temperature (instant thin-layer chromatography); format: physicochemical; details: 24 h at RT; 444 MBq/50 μg (27.5 nmol); triplicate ± SD
Description: The radioisotope-free compounds were diluted in metal-free water at needed concentrations and were stored at -20°C. ^212Pb was produced using ^224Ra generators (Orano Med LLC). Chelation was performed by incubating 27.5 nmol of peptide per 444 MBq of ^212Pb for 10 min at room temperature in 0.4 M ammonium acetate buffer, with a pH of 6.1. Radiochemical purity, assayed by instant thin-layer chromatography was used to confirm that ^212Pb chelation was greater than 95%. Radiolabeled peptides were spotted onto an instant thin-layer chromatography strip and allowed to migrate in a 22% citrate buffer. The instant thin-layer chromatography strip was then cut in half and counted using a calibrated Perkin Elmer Wizard2 2470 automatic γ-counter with an energy window of 185-250 keV considering ^212Pb major emitted γ-rays (238 keV). Samples were diluted to appropriate activity before injection in a buffer containing ascorbic acid, ethanol, and polysorbate-20. […], and PSC-PEG2-TATE (Fig. 1) were radiolabeled at a specific activity of 444 MBq per 50 μg (or 27.5 nmol) in a chelation buffer containing 5% ethanol, 20 mM ascorbic acid, and 0.02% polysorbate 80. The chelation of ^212Pb appears to occur more slowly with the PSC than with the DOTA and DOTAM chelators. […] The RCY remained above 95% at 24 h for all compounds.

[7] = time-activity curve of %ID/g at 1, 4, 24 h, decay corrected to time of collection

octreotide [TOC]
affinity for SSTR2 [1]: high affinity
affinity for somatostatin receptor 3 [2]: high affinity
affinity for somatostatin receptor 5 [3]: high affinity

C[C@@H](O)[C@@H]1NC(=O)[C@H](CCCCN)NC(=O)[C@@H](Cc2c[nH]c3ccccc23)NC(=O)[C@H](Cc2ccc(O)cc2)NC(=O)[C@@H](NC(=O)[C@@H](Cc2ccccc2)NC(=O)CCOCCOCCNC(=O)CN2CCN(CC(=O)O)CCN(CC(N)=O)CCN(CC(=O)O)CC2)CSSC[C@@H](C(=O)N[C@H](CO)[C@@H](C)O)NC1=O [^212Pb-PSC-PEG2-TOC, PSC-amino-PEG2-acid-D-Phe-cyclo(Cys-Tyr-D-Trp-Lys-Thr-Cys)Thr-OH, metal not drawn, reference compound]
AR42J tumor AUC ([4]; mouse, in vivo): 290 ± 45
Kidney AUC ([4]; mouse, in vivo): 320 ± 51

C[C@@H](O)[C@H](NC(=O)[C@@H]1CSSC[C@H](NC(=O)[C@@H](Cc2ccccc2)NC(=O)CN2CCN(CC(N)=O)CCN(CC(N)=O)CCN(CC(N)=O)CC2)C(=O)N[C@@H](Cc2ccc(O)cc2)C(=O)N[C@H](Cc2c[nH]c3ccccc23)C(=O)N[C@@H](CCCCN)C(=O)N[C@@H]([C@@H](C)O)C(=O)N1)C(=O)O [[^212Pb]Pb-DOTAMTATE, metal not drawn]
tissue uptake at 4 h [5]: ~50 %ID/g
AR42J tumor AUC ([4]; mouse, in vivo): 583 ± 58
Kidney AUC ([4]; mouse, in vivo): 186 ± 28
uptake in healthy tissues such as the stomach, the lungs, and spleen ([4]; mouse, in vivo): higher compared with uptake of the other SSTR2 analogs

C[C@@H](O)[C@H](NC(=O)[C@@H]1CSSC[C@H](NC(=O)[C@@H](Cc2ccccc2)NC(=O)CCOCCOCCNC(=O)CN2CCN(CC(=O)O)CCN(CC(N)=O)CCN(CC(=O)O)CC2)C(=O)N[C@@H](Cc2ccc(O)cc2)C(=O)N[C@H](Cc2c[nH]c3ccccc23)C(=O)N[C@@H](CCCCN)C(=O)N[C@@H]([C@@H](C)O)C(=O)N1)C(=O)O [[^212Pb]Pb-PSC-PEG2-TATE, PSC-amino-PEG2-acid-D-Phe-cyclo(Cys-Tyr-D-Trp-Lys-Thr-Cys)Thr-COOH, metal not drawn]
AR42J tumor AUC ([4]; mouse, in vivo): 274 ± 59
Kidney AUC ([4]; mouse, in vivo): 290 ± 27

C[C@@H](O)[C@@H]1NC(=O)[C@H](CCCCN)NC(=O)[C@@H](Cc2ccc(NC(N)=O)cc2)NC(=O)[C@H](Cc2ccc(NC(=O)[C@@H]3CC(=O)NC(=O)N3)cc2)NC(=O)[C@H](NC(=O)[C@H](Cc2ccc(Cl)cc2)NC(=O)CN2CCN(CC(N)=O)CCN(CC(N)=O)CCN(CC(N)=O)CC2)CSSC[C@@H](C(=O)N[C@H](Cc2ccc(O)cc2)C(N)=O)NC1=O [[^212Pb]Pb-DOTAM-JR11, DOTAM-p-Cl-Phe-cyclo(D-Cys-Aph(Hor)-D-Aph(Cbm)-Lys-Thr-Cys)D-Tyr-ONH2, metal not drawn] (DO3AM-[Phe(4-Cl)][dC][Phe(4-NH2)](Dihydroorotyl(S))[dPhe(4-NHCONH2)]KTC[dY]-NH2; disulfide 2-7)
AR42J tumor AUC ([4]; mouse, in vivo): 363 ± 75
Kidney AUC ([4]; mouse, in vivo): 274 ± 19
tumor retention ([4]; mouse, in vivo): favorable tumor retention
uptake in healthy tissues such as the stomach, the lungs, and spleen ([4]; mouse, in vivo): higher compared with uptake of the other SSTR2 analogs

C[C@@H](O)[C@H](NC(=O)[C@@H]1CSSC[C@H](NC(=O)[C@@H](Cc2ccccc2)NC(=O)CN2CCN(CC(=O)O)CCN(CC(=O)O)CCN(CC(=O)O)CC2)C(=O)N[C@@H](Cc2ccc(O)cc2)C(=O)N[C@H](Cc2c[nH]c3ccccc23)C(=O)N[C@@H](CCCCN)C(=O)N[C@@H]([C@@H](C)O)C(=O)N1)C(=O)O [[^212Pb]Pb-DOTATATE, metal not drawn, reference compound]
tissue uptake at 4 h ([5]; 444 kBq, 4 h after injection, i.v., AR42J tumor, read-out: average tumor uptake): ~10 %ID/g
Tumor AUC / Kidney AUC ratio (T/K AUC ratio) ([4]; decay corrected to time of collection): 0.73
AR42J tumor AUC [4, 7]: 122 ± 12
Kidney AUC [4, 7]: 161 ± 21
biodistribution profile / accumulation in healthy tissues ([4]; tumor-bearing female mice): distinctly cleaner
RCY [6]: 98.3% ± 1.2%

C[C@@H](O)[C@H](NC(=O)[C@@H]1CSSC[C@H](NC(=O)[C@@H](Cc2ccccc2)NC(=O)CN2CCN(CC(=O)O)CCN(CC(N)=O)CCN(CC(=O)O)CC2)C(=O)N[C@@H](Cc2ccc(O)cc2)C(=O)N[C@H](Cc2c[nH]c3ccccc23)C(=O)N[C@@H](CCCCN)C(=O)N[C@@H]([C@@H](C)O)C(=O)N1)C(=O)O [[^212Pb]Pb-PSC-TATE, PSC-D-Phe-cyclo(Cys-Tyr-D-Trp-Lys-Thr-Cys)Thr-COOH, metal not drawn]
AR42J tumor AUC ([4]; mouse, in vivo): 177 ± 22
Kidney AUC ([4]; mouse, in vivo): 156 ± 24

C[C@@H](O)[C@@H]1NC(=O)[C@H](CCCCN)NC(=O)[C@@H](Cc2c[nH]c3ccccc23)NC(=O)[C@H](Cc2ccc(O)cc2)NC(=O)[C@@H](NC(=O)[C@@H](Cc2ccccc2)NC(=O)CN2CCN(CC(=O)O)CCN(CC(N)=O)CCN(CC(=O)O)CC2)CSSC[C@@H](C(=O)N[C@H](CO)[C@@H](C)O)NC1=O [^212Pb-PSC-TOC, PSC-D-Phe-cyclo(Cys-Tyr-D-Trp-Lys-Thr-Cys)Thr-OH, metal not drawn]
AR42J tumor AUC ([4]; mouse, in vivo): 353 ± 52
Kidney AUC ([4]; mouse, in vivo): 377 ± 34

octreotate
binding to SSTR2 relative to TOC [1]: approximately 10 fold
affinity for somatostatin receptor 3 [2]: minimal binding
affinity for somatostatin receptor 5 [3]: moderate affinity
